Here are results for 41 sequences from the nanobody polyreactivity screen of Harvey et al. (2022).

The nature of this series: yeast display, Sf9 membrane polyspecificity reagent, FACS + sequencing; frameworks hold sequencing errors. The method, boiled down: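 Galactose-induced (36–48 hours) yeast carrying a synthetic nanobody display library were exposed to 10% biotinylated, detergent-solubilized Sf9 membrane reagent at 4 °C for 1 hour. FACS followed streptavidin microbead enrichment, using low and high (top ~1%) gates for expression (anti-HA) and reagent binding (streptavidin). Colony PCR, MiSeq 2 × 250 sequencing and CDR-length filtering followed. Labels for polyreactivity reflect the gate of origin.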
With “QVQLVESGGGLVQAGGSLRLSCAASGSIFTPYTMGWYRQAPGKERELVAAITGSAGSTYYADSVKGRFTISRDNAKNTVYLQMNSLKPEDTAVYYCAAAVWGVYQWYYYWGQGTQVTVSS”, the “polyreactivity (PSR sort gate)” value is “high polyreactivity”.

Take “QVQLVESGGGLVQAGGSLRLSCAASGGTFRSNAMGWYRQAPGKERELVAAITRTGRTNYADSVKGRFTISRDNAKNTVYLQMNSLKPEDTAVYYCNAARYVREYDYWGQGTQVTVSS”: the “polyreactivity (PSR sort gate)” value is “high polyreactivity”.

Take “QVQLVESGGGLVQAGGSLRLSCAASGITFKAYAMGWYRQAPGKDRELVAAINTSGARTYYADSVKGRFTISRDNAKNTVYLQMNSLKPEDTAVYYCNARLHQQEGDYWGQGTQVTVSS”: the “polyreactivity (PSR sort gate)” value is “low polyreactivity”.

As to “QVQLVESGGGLVQAGGSLRLSCAASGRITFSHNTMGGSRQAPGKERELVAAISSGGRTNYADSVKGRFTISRDNAKNTVYLQMNSLKPEDTAVYYCARESHYDFIYDGMDYWGQGTQVTVSS”, the “polyreactivity (PSR sort gate)” value was “low polyreactivity”.

“QVQLVESGGRLVQAGGSLRLSCAASGYTFGSYPMGWYRQAPGNERELVAAISGGGSTNYADSVKGRFTISRDNAKNTVYLQMNSMKPEDTAVYYCAAYPYVYQLRVEEYDHWGQGTQVTVSS”: the “polyreactivity (PSR sort gate)” value is given as “low polyreactivity”.

Consider “QVQLVESGGGLVQAGGSLRLSCAASGYILWNAMGCYRQAPGKDRELVAAISSGGSTNYADSVKGRFTISRDNAKNTVYLQMNSLKPEDTAVYYCNTDRFWPSDYWGQGTQVTVSS”, for which the “polyreactivity (PSR sort gate)” value is recorded as “low polyreactivity”.

As for “QVLLVESGGGLVQAGGILRLSCAASGLTFTYYAMGWYRQAPGKERELVAAISRCGTGTYYADSVKGRFTISRDNAKNTVYLHMNSLKPEDTAVYYCATLPGRYFTANEYWGQGTQVTVSS”, the “polyreactivity (PSR sort gate)” value is listed as “high polyreactivity”.

As for “QVQLVESGGGLVQAGGSLRLSCAASGITFDRYAMGWYRQAPGKERELVAAITSGGRTYYADSVKGRFTISRDNAKNTVYLQMNSLKPEDTAVYYCNATRGQYVGRYYYWGQGSQVTVSS”, the “polyreactivity (PSR sort gate)” value is “high polyreactivity”.

“QVQLVESGGGLVQAGGSLRLSCAASGIIFRYNAMGWYRQAPGKERELVAVINWRSGGTYYADSVKGRFTISRDNAKNTVYLQMNSLKPDDTADYYCADRVGSWTQSFGYDYWGQGTQVTVSS”: the “polyreactivity (PSR sort gate)” value is “high polyreactivity”.

“QVQLVESGGRLVQAGASLRLSCAASASIFASNAMGWYRHEPGKERELVAAINSGDSTNYADSVKGRFTISRDNAKNTVYLQMNSLKPEDTAVYYCARGLEERYDYWGQGTQVTVSS”: the “polyreactivity (PSR sort gate)” value is listed as “low polyreactivity”.

On to “QVQLVESGGGLVQAGGSLRLSCAASGATFSYYAMGWYRQAPGKERELVAAISYSGGSTYYADSVKGRFTISRDNAKNTVYLQMNSLKPEDTAVYYCNARDPYYGDPSSLPDTRSRSDYWGQGTQVTVSS”, for which the “polyreactivity (PSR sort gate)” value is “low polyreactivity”.

As for “QVQLVESGGGLVQAGGSLRLSCAASGFTFWYYAMGWYRQAPGKERELVAAISRSGTSTYYADSVKGRFTISRDNAKNTVFLQMNCLKPEDSAVYYCNVLRVNSITYLMDYWVQGTQVTVSS”, the “polyreactivity (PSR sort gate)” value is given as “high polyreactivity”.

For the sequence “QVQLVESGGGLVQAGGSLRLSCPASGSTFWYYDMGWSRQAPGKERELVAAISGSGGRTYYADSVKGRFTISRDNAKNTVYLQMNSLKPEDTAVYYCAADYYWSADFKYNDWGQGTQVTVAS”, the “polyreactivity (PSR sort gate)” value was “low polyreactivity”.

As for “QVQLVESGGGLVQAGGSLRLSCAASGNGLGWYRQAPGKERELVAAITRRGGSTYYADSVKGRFTISRDNAKNTVYLQMNSLKPEDTAVYYCAADNPSYNLWYGYWGQGTQVTVSS”, the “polyreactivity (PSR sort gate)” value is reported as “low polyreactivity”.

Regarding “QVQLVESGGGLVQAGGSLRLSCAASGSTFEANAMGWYRQAPGKERELVAVITWTGGSTYYADSVKGRFTISRDNAKNTVYLQMNSLKPEDTAVDYCAADGVVPGRFFWPAHEYDYWGQGTQVTVSS”, the “polyreactivity (PSR sort gate)” value is recorded as “low polyreactivity”.

“QLQLGESGGGLVQAGGSLRLSCAGSGSIFNYYAMGWYRQATGKERELVAAITSGGSTYYADSVKGRFTISRDNAKNTVYLQMNSLKPEDTAVYYCNKAFPYIYEYWGQGTQVTVSS”: the “polyreactivity (PSR sort gate)” value is “low polyreactivity”.

Consider “QVQLVESGGGLVQAGGSLRLSCAASGSIFYGNTMGWYRQAPGKEREFVAAINKSDDSTYYADSVKGRFTISRDNAKNTVYLQMNSLKPEDTAVYYCAADYLGRFDYNYWGQGTQVTVSS”, for which the “polyreactivity (PSR sort gate)” value is on record as “low polyreactivity”.

As to “QVQLVESGGGLVQAGGSLRLSCAASGRTFPVYAMGWYRQAPGKERELVAAIRGRSVRTYYADSVNGRFTISRDNAKNTVYLQMNSLKPEDTAVYYCAAYYFNPGMDYWGQGTQVTVSS”, the “polyreactivity (PSR sort gate)” value is on record as “high polyreactivity”.

For the sequence “QVQLVESGGGLVQAGGSLRLSCAASGRTFRRNAMGWYRQAPGKERELVAAISGGGSTNYADSVKGRFTISRDNAKNTVYLQMNSLKPEDTAVYYCNKRGTIWSGYWGQGTQVTVSS”, the “polyreactivity (PSR sort gate)” value was “high polyreactivity”.

For “QVQLVESGGGLVQAGGSLRLSCAASGSIFSYNAMGWYREAPGKERELVAAISSRGRTYYADSVKGRFTISRDNAKNTVNLQMNSLKPEDTAVYYCAARGYWDLRTFYYWGQGTQVTVSS”, the “polyreactivity (PSR sort gate)” value is recorded as “high polyreactivity”.

For the sequence “QVQLVESGGGLVQAGGSLRLSCAASGRIFTHNAMGWYRQAPGKERELVAAISSIGGSTYYADSVKGRFTISRDNAKNTVYLQMNSLKPEDTAVYYCAVKRPLYGDSEYYYWGQGTQVTVSS”, the “polyreactivity (PSR sort gate)” value is “low polyreactivity”.

As to “KVQVVESGGGLVQAGGSLRLSCAASGSTFYYNAMGWYTQAPGKERELVAAITGSGTGTNYADSVKGRFTISRDNAKNTVYLQMNSLKPEDTAVYYCAADYVWRGDPINSYLSWYVYWGQGTQVTVSS”, the “polyreactivity (PSR sort gate)” value is on record as “low polyreactivity”.

Take “QVQLVESGGGLVQAGVSLRLSCAASGRIFNYYTMGWYRQAPGKERELVAAINWSGGSTYYADSVKGRFTISRDNAKNTVYLQMNSLKPEDTAVYYCNALGYYGRAYYRGYDYWGQGTQVTVSS”: the “polyreactivity (PSR sort gate)” value is listed as “high polyreactivity”.

As for “QVHLVESGGGLVQAGGSLRLSCAASGSTFYVNAMGWDRQAPGKERELVAAIRSSGRTNYADSVKGRFTISRDNAKNTVYLQMNSLKPEDTAVYYCAAEVPHWPYYGRLHDRDYWGQGTQVTVSS”, the “polyreactivity (PSR sort gate)” value is reported as “low polyreactivity”.

Consider “QVQLVESGGGLVQAGGSLRLSSAASGHHFRTNAMGWYRQAPGKERELVAVINIGGASTYYADSVKGRFTISRDNAKNTVNLQMNSLKPEDTAVYYCAQEFYDGYFPTFDYDYWGQGTQVTVSS”, for which the “polyreactivity (PSR sort gate)” value is given as “low polyreactivity”.

As to “QVQLVESGGGLVQAGGSLRLTCAASGIIFYGYAIGWYRQAPGKERQLVAAISSGGGTNYADSVKGRFTISRDNAKNTVYLQMNSLKPEDTAVYYCAARQYRRVKQGNYWGQGTQVTLSS”, the “polyreactivity (PSR sort gate)” value is given as “high polyreactivity”.

On to “QVQLVESGGGIVQAGGSLRLSCAASGYTFGRYAMGWYRQAPGKERELVAGIRWRGGSTYYADSVKGRFTISRDNAKNTVYLQMNSLKPEDTAVYYCAAYGYPVYYNYHYDYWGQVTQVTVSS”, for which the “polyreactivity (PSR sort gate)” value is “high polyreactivity”.

In the case of “QVQLQESSGGLVQAGGSLRMGCAASGTIFHFHIMGWYRPAPGKEREFVAAISYGTSTYYADSVKGRFTISRDNAKNTVYLQMNSQKPEDTAVYYCAVYDYLEVYCWYWGQGTQVNVSS”, the “polyreactivity (PSR sort gate)” value is reported as “low polyreactivity”.

As to “QVQLVESGGGLVQAGGSLRLSCAASGRTITRNALGWYRQAPGKERELVASINRGGSTNYADSVKGRFTISRDNAKNTDYLQMNSLNPEDTAVYYCYYHVYEQYFWVEYDYWGQGTQVTVSS”, the “polyreactivity (PSR sort gate)” value is listed as “high polyreactivity”.

Consider “QVQLVESGGGLVQAGGSLRLSCAASGFTYLRYAMGWYRQAPGKERELVAAISFSGDTTNYADSVKGRFTISRDNAKNTVYLQMNSLKPEDTAVYYCAASYGGGYYSDRGYYYWGQGTQVTVSS”, for which the “polyreactivity (PSR sort gate)” value was “low polyreactivity”.

Consider “QVQLVESGGGLVQAGGSLRLSCAASGSTFYVNAMGWYRQAPGKDRELVAVISTGGSTYYADSVKGRFTISRDNAKNTVYLQMNSLKPEDTAVYYCAKRDLPDRSGTPNVIPFDYWGQGTQVTVSS”, for which the “polyreactivity (PSR sort gate)” value is reported as “low polyreactivity”.

In the case of “QVQLVESGVGLVQAGGSLRLSCAAYGSIFDGYAMGWYRPAPGKEREFVATITVSGGRSYYADSVKGSFTISRDNANNTVYLEMNSLKPEDTAVYYGNVDVFYYPHRYDYWGQGTQVTVSS”, the “polyreactivity (PSR sort gate)” value was “high polyreactivity”.

Turning to “QVQLVESGGGLVQAGGSLRLSCAASGSILYYYTMGWYRQAPGQDRELVAAITSSGGSTYYADSVKGRFTISRDNATKTVYLQMNSLKPEDTAVDYCNVDSGRSYRVARYDYWGQGTQVTVSS”, the “polyreactivity (PSR sort gate)” value was “low polyreactivity”.

As to “QVQLVESGGGLVQAGGSLRLSCAASGITFWYYVMGWYRQAPGKERELFAAITLSGGSTYYADSVKGRFTISRDNAKNTVYLQMNSLKPEDTAVYYCNADGSAGIRGKYDYWGQGTQVTVSS”, the “polyreactivity (PSR sort gate)” value was “low polyreactivity”.

On to “QVQLVESGGGIVQAGGSLRLSCAASGITFPFYTMGWYRQAPGKERELVADISSRGTSTYYADSVKGRFTISRDNAKYTVYLQMNSLNPEDTAVYYCKARATPQRAYDSWGQGTLVTVSS”, for which the “polyreactivity (PSR sort gate)” value is given as “high polyreactivity”.

With “QVQLVESGAGLVQAGGGLRLSCAASGFIFNLYAMGWYREAPGKERELVAAISSGGNTHYADSVKGRFTISRDNAKNTVYLQMNSLKPVDTAVYYCNADVNHVNKAWHVSFHQGYYWGQGTQVTVSS”, the “polyreactivity (PSR sort gate)” value is “low polyreactivity”.

Take “QVQLVESGGGLGQAGGSLRLSCAASGSTFYRNAMGWYRPAPGKERELVAAISGSDGSTYYADSVKGRFTISRDNAKNTVYLQMNSLKPEDTAVYYCVVAYARKYYYWGQGTQVTVSS”: the “polyreactivity (PSR sort gate)” value is reported as “high polyreactivity”.

For the sequence “QVQLVESGGGLVQAGGSLRLSCAASGSTFSKYAMGWYRQAPGKERELVAGISRRVGSTYYADSVKGRFTISRDNAKNTVYFQMNSLKPEDTAVYYCNKVRGYPWQVVGYDYWGQGTQVTVSS”, the “polyreactivity (PSR sort gate)” value is “high polyreactivity”.

As for “QVQLVESGGVLVQAGGSLRLSCAASGRTFNAYTMGWYRQAPGKERELVAAITSSGGNTYYADSVKGRFTITRDNGKNTVFLQMNSLKPEDTAVYYCNTVYLYGTHDYWGQGTQLTVSS”, the “polyreactivity (PSR sort gate)” value was “low polyreactivity”.

In the case of “QVQLVESGGGLVQAGGSLRLSCAASGRIFDDYGMGWYRQAQGKESELVAGISFIAGSTYYADSVKGRFTISRDNAKNTVYLQMNSLKPEDTAVYYCAVELWYEYYYWGQGTQVTVSS”, the “polyreactivity (PSR sort gate)” value was “high polyreactivity”.

Consider “QVQLVESGGGLVQAGGSLRLSCAASGSIFWYYAMGWYRQAPGKERELVAAISSGGSTYYADSVKGRFTISRDNAKNTVYLQMNSLKPEDTAVYYCAAGAFGQILNYWGQGTQVTVSS”, for which the “polyreactivity (PSR sort gate)” value is “high polyreactivity”.
